# Results reported in the Immune Epitope Database (IEDB).
# Tests used:
# HLA-A*02:01 = assay: IEDB peptide-MHC binding, purified MHC/competitive/fluorescence; filed as Kd, often an IC50 or EC50 that approximates it; ≥ and ≤ were set here for values at or beyond the usual limits of such assays; conditions: source organism: Salmonella enterica subsp. enterica serovar Typhi
# HLA-A*01:01 [1] = assay: as above; conditions: source organism: Salmonella enterica subsp. enterica serovar Typhi
# HLA-B*15:17 [2] = assay: as above; conditions: source organism: Salmonella enterica subsp. enterica serovar Typhi
# HLA-B*15:01 [3] = assay: as above; conditions: source organism: Salmonella enterica subsp. enterica serovar Typhi
# HLA-B*40:01 [4] = assay: as above; conditions: source organism: Salmonella enterica subsp. enterica serovar Typhi
# HLA-A*69:01 = assay: as above; conditions: source organism: Salmonella enterica subsp. enterica serovar Typhi
# HLA-B*15:09 = assay: as above; conditions: source organism: Salmonella enterica subsp. enterica serovar Typhi
# HLA-B*08:01 [5] = assay: as above; conditions: source organism: Salmonella enterica subsp. enterica serovar Typhi
# HLA-A*02:06 = assay: as above; conditions: source organism: Salmonella enterica subsp. enterica serovar Typhi
# HLA-B*07:02 [6] = assay: as above; conditions: source organism: Salmonella enterica subsp. enterica serovar Typhi
# HLA-A*11:01 [7] = assay: as above; conditions: source organism: Salmonella enterica subsp. enterica serovar Typhi
# HLA-A*31:01 [8] = assay: as above; conditions: source organism: Salmonella enterica subsp. enterica serovar Typhi
# HLA-A*30:01 = assay: as above; conditions: source organism: Salmonella enterica subsp. enterica serovar Typhi
# HLA-B*58:01 [9] = assay: as above; conditions: source organism: Salmonella enterica subsp. enterica serovar Typhi
# HLA-A*03:01 [10] = assay: as above; conditions: source organism: Salmonella enterica subsp. enterica serovar Typhi
# HLA-B*48:01 [11] = assay: as above; conditions: source organism: Salmonella enterica subsp. enterica serovar Typhi
# HLA-B*27:05 [12] = assay: as above; conditions: source organism: Salmonella enterica subsp. enterica serovar Typhi
# HLA-B*46:01 [13] = assay: as above; conditions: source organism: Salmonella enterica subsp. enterica serovar Typhi
# HLA-B*38:01 = assay: as above; conditions: source organism: Salmonella enterica subsp. enterica serovar Typhi
# HLA-A*02:03 = assay: as above; conditions: source organism: Salmonella enterica subsp. enterica serovar Typhi
# HLA-C*05:01 = assay: IEDB peptide-MHC binding, purified MHC/direct/fluorescence; filed as Kd, often an IC50 or EC50 that approximates it; ≥ and ≤ were set here for values at or beyond the usual limits of such assays
# HLA-B*83:01 = assay: IEDB peptide-MHC binding, purified MHC/competitive/fluorescence; filed as Kd, often an IC50 or EC50 that approximates it; ≥ and ≤ were set here for values at or beyond the usual limits of such assays; conditions: source organism: Human alphaherpesvirus 1
# HLA-B*45:06 = assay: as above; conditions: source organism: Human alphaherpesvirus 1
# HLA-B*15:42 = assay: as above; conditions: source organism: Human alphaherpesvirus 1
# HLA-A*32:15 = assay: as above; conditions: source organism: Human alphaherpesvirus 1
# HLA-B*51:01 = assay: IEDB peptide-MHC binding, purified MHC/direct/fluorescence; filed as Kd, often an IC50 or EC50 that approximates it; ≥ and ≤ were set here for values at or beyond the usual limits of such assays; conditions: source organism: Human alphaherpesvirus 1
# HLA-A*26:03 = assay: IEDB peptide-MHC binding, purified MHC/competitive/fluorescence; filed as Kd, often an IC50 or EC50 that approximates it; ≥ and ≤ were set here for values at or beyond the usual limits of such assays; conditions: source organism: Coxiella burnetii Dugway 5J108-111
# HLA-A*68:02 = assay: as above; conditions: source organism: Coxiella burnetii Dugway 5J108-111
# HLA-A*01:01 [14] = assay: IEDB peptide-MHC binding, purified MHC/direct/fluorescence; filed as Kd, often an IC50 or EC50 that approximates it; ≥ and ≤ were set here for values at or beyond the usual limits of such assays; conditions: source organism: Coxiella burnetii
# HLA-B*15:17 [15] = assay: as above; conditions: source organism: Coxiella burnetii
# HLA-B*15:01 [16] = assay: as above; conditions: source organism: Coxiella burnetii
# HLA-B*18:01 = assay: as above; conditions: source organism: Coxiella burnetii
# HLA-B*40:01 [17] = assay: as above; conditions: source organism: Coxiella burnetii
# HLA-B*08:01 [18] = assay: as above; conditions: source organism: Coxiella burnetii RSA 493
# HLA-B*07:02 [19] = assay: as above; conditions: source organism: Coxiella burnetii
# HLA-A*11:01 [20] = assay: as above; conditions: source organism: Coxiella burnetii
# HLA-B*08:02 = assay: as above; conditions: source organism: Coxiella burnetii RSA 493
# HLA-A*31:01 [21] = assay: as above; conditions: source organism: Coxiella burnetii
# HLA-A*26:01 = assay: as above; conditions: source organism: Coxiella burnetii RSA 493
# HLA-B*58:01 [22] = assay: as above; conditions: source organism: Coxiella burnetii
# HLA-B*57:01 = assay: as above; conditions: source organism: Coxiella burnetii
# HLA-A*03:01 [23] = assay: as above; conditions: source organism: Coxiella burnetii
# HLA-A*26:02 = assay: as above; conditions: source organism: Coxiella burnetii RSA 493
# HLA-B*48:01 [24] = assay: as above; conditions: source organism: Coxiella burnetii
# HLA-B*27:05 [25] = assay: as above; conditions: source organism: Coxiella burnetii
# HLA-B*46:01 [26] = assay: as above; conditions: source organism: Coxiella burnetii
sequence,measurement,setting,value
LSEEANWAF,Kd,HLA-A*02:01,≥ 20 µM
same,Kd,HLA-A*01:01 [1],42.3 nM
same,Kd,HLA-B*15:17 [2],23.2 nM
same,Kd,HLA-B*15:01 [3],947 nM
same,Kd,HLA-B*40:01 [4],≥ 20 µM
same,Kd,HLA-A*69:01,≥ 20 µM
same,Kd,HLA-B*15:09,≥ 20 µM
same,Kd,HLA-B*08:01 [5],≥ 20 µM
same,Kd,HLA-A*02:06,51.7 nM
same,Kd,HLA-B*07:02 [6],≥ 20 µM
same,Kd,HLA-A*11:01 [7],≥ 20 µM
same,Kd,HLA-A*31:01 [8],≥ 20 µM
same,Kd,HLA-A*30:01,≥ 20 µM
same,Kd,HLA-B*58:01 [9],498 nM
same,Kd,HLA-A*03:01 [10],≥ 20 µM
same,Kd,HLA-B*48:01 [11],≥ 20 µM
same,Kd,HLA-B*27:05 [12],≥ 20 µM
same,Kd,HLA-B*46:01 [13],≥ 20 µM
same,Kd,HLA-B*38:01,≥ 20 µM
same,Kd,HLA-A*02:03,≥ 20 µM
same,Kd,HLA-C*05:01; source organism: Salmonella enterica subsp. enterica serovar Typhi str. CT18,5 nM
MPYAAHDPI,Kd,HLA-B*83:01,172 nM
same,Kd,HLA-B*45:06,≥ 5 µM
same,Kd,HLA-B*15:42,≥ 5 µM
same,Kd,HLA-A*32:15,136 nM
same,Kd,HLA-C*05:01; source organism: Human alphaherpesvirus 1,≥ 20000 nM
same,Kd,HLA-B*51:01,364 nM
IIGLLKIFR,Kd,HLA-A*26:03,≥ 20 µM
same,Kd,HLA-A*68:02,1320 nM
same,Kd,HLA-A*01:01 [14],≥ 20 µM
same,Kd,HLA-B*15:17 [15],≥ 20 µM
same,Kd,HLA-B*15:01 [16],≥ 20 µM
same,Kd,HLA-B*18:01,≥ 20 µM
same,Kd,HLA-B*40:01 [17],≥ 20 µM
same,Kd,HLA-B*08:01 [18],≥ 20 µM
same,Kd,HLA-B*07:02 [19],≥ 20 µM
same,Kd,HLA-A*11:01 [20],224 nM
same,Kd,HLA-B*08:02,≥ 20 µM
same,Kd,HLA-A*31:01 [21],22.7 nM
same,Kd,HLA-A*26:01,≥ 20 µM
same,Kd,HLA-B*58:01 [22],≥ 20 µM
same,Kd,HLA-B*57:01,≥ 20 µM
same,Kd,HLA-A*03:01 [23],406 nM
same,Kd,HLA-A*26:02,≥ 20 µM
same,Kd,HLA-B*48:01 [24],≥ 20 µM
same,Kd,HLA-B*27:05 [25],≥ 20 µM
same,Kd,HLA-B*46:01 [26],≥ 20 µM
